Here are results for 1 molecule from patent US20250297030A1 (SHANDONG SIMCERE BIOPHARMACEUTICAL, published 2025).

Read-outs that look alike come from different tables or passages of the source.

The target of experiment [1] is T1, Human MUC17 ECD4131-his (His-tagged human MUC17 protein extracellular domain fusion protein) (human, UniProt Q685J3 4131-4393).
T1 construct: a truncation of the extracellular domain; also called human MUC17-his protein; human MUC17-His
Briefly: SPR (Biacore 8K), antibody captured on Protein A. How it is done: The strength of antibody-antigen binding was assayed with a BIAcore 8K instrument using an Protein A capture method. First, Protein A was immobilized onto a CM4 chip (purchased from GE, BR-1005-34) using an amino coupling method. According to the instruction of the Amine Coupling Kit (purchased from GE, BR100633), NHS and EDC were mixed with HBS-EP+ pH 7.4 as a mobile phase to activate the chip for about 600 s; the Protein A was diluted to 50 µg/mL with 10 mM sodium acetate (pH 4.5) and injected for 600 s, and finally, the remaining activated sites were blocked with ethanolamine. Then, the affinity of the antibody for the antigen was assayed using a multi-cycle kinetic method; in each cycle, first, the antibody to be tested was captured using the Protein A chip, and then a single concentration of antigen protein was injected. The association and dissociation processes of the antibody with the antigen protein were recorded, and finally, the chip was regenerated using Glycine pH 1.5, wherein the mobile phase was HBS-EP+ (10 mM HEPES, 150 mM NaCl, 3 mM EDTA, 0.05% surfactant P20), the flow rate was […], the regeneration time was 30 s, and the assay temperature was 25° C. Finally, according to a 1:1 binding model, the data were analyzed, and the antibody-antigen binding kinetics parameters, including the association rate constant Ka, the dissociation rate constant Kd, the equilibrium dissociation constant KD, and the maximum binding signal Rmax, were fitted. The association rate (Ka), dissociation rate (Kd), and binding affinity (KD) of the recombinant antibodies Lab315-huFc, Lab316-huFc, Lab320-huFc, Lab331-huFc, and Lab332-huFc with the human MUC17 protein are shown in Table 5.
On the technique in general: SPR reads the build-up and loss of mass on a sensor chip optically.

For experiment [2], the target named is T2, monkey MUC17 fragment on FlpinCHO-Cyno(3597-3964)-D2 cells (monkey).
T2 chain: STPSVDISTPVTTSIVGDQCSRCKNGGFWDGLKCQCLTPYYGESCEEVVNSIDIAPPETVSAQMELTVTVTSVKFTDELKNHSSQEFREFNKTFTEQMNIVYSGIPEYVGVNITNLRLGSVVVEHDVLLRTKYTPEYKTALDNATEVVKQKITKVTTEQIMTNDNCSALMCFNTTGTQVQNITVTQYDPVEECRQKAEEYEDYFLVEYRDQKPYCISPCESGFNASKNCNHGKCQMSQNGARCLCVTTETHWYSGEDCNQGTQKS
Briefly: FACS on FlpinCHO-Cyno(3597-3964)-D2 cells, MFI.

Experiment [3] addresses T1, Human MUC17 ECD4131-his (His-tagged …). In words: ELISA on coated human MUC17 ECD4131-his, OD450. On the procedure:
(§1) A human MUC17-his protein was diluted with PBS to a final concentration of […] and then added to a 96-well ELISA plate at 50 µL/well. The plate was incubated at 4° C. overnight. The next day, the plate was washed 2 times with PBST, and a blocking buffer [PBS+2% (w/w) BSA] was added for blocking at room temperature for 2 h. The blocking buffer was discarded, and the recombinant antibody and positive and negative control antibody with a starting concentration of 100 nM serially diluted by 3 folds were added at 50 μL/well. After incubation at 37° C. for 1 h, the plate was washed 3 times with PBST. A horseradish peroxidase (HRP)-labeled secondary antibody (purchased from Merck, Cat. No. AP113P) was added for incubation at 37° C. for 1 h, and the plate was washed 5 times with PBST. A TMB substrate was added at 50 μL/well for incubation at room temperature for 10 min, and then a stop solution (1.0 M HCl) was added at 50 µL/well. The OD₄₅₀ nm values were read by an ELISA plate reader (Multimode Plate Reader, EnSight, purchased from Perkin Elmer).
On the technique in general: An ELISA detects its analyte on a solid surface through an enzyme-linked reagent.

Experiment [4] addresses T3, Cyno MUC17 ECD3577-his (His-tagged cynomolgus monkey MUC17 protein extracellular domain fusion protein) (cynomolgus monkey).
T3 construct: also called monkey MUC17-his protein; monkey MUC17 ECD3577-His
T3 chain: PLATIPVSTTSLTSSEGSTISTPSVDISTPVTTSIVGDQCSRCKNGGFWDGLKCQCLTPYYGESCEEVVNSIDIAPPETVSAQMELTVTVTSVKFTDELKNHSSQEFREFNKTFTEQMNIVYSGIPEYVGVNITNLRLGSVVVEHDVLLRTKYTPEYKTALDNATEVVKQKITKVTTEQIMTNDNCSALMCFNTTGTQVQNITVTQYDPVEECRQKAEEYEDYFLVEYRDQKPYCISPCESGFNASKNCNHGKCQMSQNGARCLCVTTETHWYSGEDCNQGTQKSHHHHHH
Briefly: ELISA on coated monkey MUC17 ECD3577-His, OD450. How it is done:
as §1
The monkey MUC17-his protein was subjected to ELISA and data analysis according to the method described in Example 3.2. The recombinant antibodies Lab315-huFc, Lab316-huFc, Lab320-huFc, Lab331-huFc, and Lab332-huFc have a relatively good binding activity with the monkey MUC17-his protein.

Experiment [5] deals with T3, Cyno MUC17 ECD3577-his (His-tagged …). In words: ELISA on coated monkey MUC17 ECD3577-His, OD450. On the procedure: To assay the binding activity of the humanized antibodies with the monkey MUC17-his protein, the monkey MUC17-his protein was diluted with PBS to a final concentration of […] and subjected to ELISA assay and data analysis according to the method described in Example 3.3. The humanized antibodies SCR-7724, SCR-7782, SCR-7783, SCR-7784, and SCR-7785 have cross-binding activity with the monkey MUC17 protein, maintaining the binding ability of the recombinant antibody.

T1 sequence (Q685J3 other isoform, or with tags, fused parts or gaps): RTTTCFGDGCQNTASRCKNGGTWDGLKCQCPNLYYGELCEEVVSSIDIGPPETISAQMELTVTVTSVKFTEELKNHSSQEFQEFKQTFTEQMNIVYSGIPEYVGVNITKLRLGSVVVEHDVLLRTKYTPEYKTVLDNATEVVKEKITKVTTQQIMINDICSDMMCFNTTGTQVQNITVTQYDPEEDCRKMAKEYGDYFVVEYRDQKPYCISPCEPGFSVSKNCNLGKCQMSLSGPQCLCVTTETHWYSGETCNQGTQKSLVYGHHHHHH

B1: 2D11-hIgG1 (antibody, V domains shown)
VH: QVQLVESGGGVVQPGRSLRLSCAASGFTFSNHGMHWVRQAPGKCLEWVAGIWSDASNKYYAEAVKGRFTISRDTSKNTLYLQMNSLRAEDTAVYYCARATYTTGWSYFDYWGQGTLVTVSS
VL: SYELTQSPSVSVSPGQTASITCSGDKLGDKYTSWYQQKPGQSPVLVIYHDRKRPSGIPERFSGSNSGNTATLTISGTQAMDEADYYCQAYDRSTAWVFGCGTKLTVLR
notes: Control antibody from WO2019133961A1, expressed as human IgG1 + kappa; also called 21D11; MUC17 control antibody
One may read the Kd as the constant that tells how readily two partners part at equilibrium. A word on the koff: it is the rate constant with which the complex falls apart. As usually defined, the kon is a measure of how fast the partners come together. Usually EC50 (read off the curve) stands for the concentration at which the effect is half-maximal. B1 displayed a Kd in experiment [1] of 7.12 nM. In addition, the off-rate constant (koff) in experiment [1] turned out to be 0.000753 s⁻¹. In addition, in experiment [1], the kon was 106000 M⁻¹ s⁻¹. Besides, the “EC50 (read off the curve)” value in experiment [2] is approximately 0.4 nM; in experiment [3], approximately 0.04 nM; in experiment [4], approximately 0.03 nM; in experiment [5], approximately 0.04 nM.
